Reference: US20120165211A1, “Human Antibodies Cross-Reacting With A Bacterial And A Self Antigen From Atherosclerotic Plaques” (priority 2007, published 2012)

Tests used:
purified OmpK36 = target: T1, purified OmpK36 (Klebsiella pneumoniae, UniProt Q48473); assay: Western blot of purified OmpK36 with recombinant Fabs; type: binding; conditions: 400 ng OmpK36His per lane; Fabs at 10 μg/L; blocking PBS/BSA10%
T1 construct: made in house; host or cells: E. coli BL21 (DE3), pET28b (BamHI/XhoI cloning)
Description: 400 ng of purified OmpK36His was loaded on polyacrylamide gel (all lanes) and SDS-PAGE was performed. Proteins were blotted on PVDF membrane for 2 h at 350 mA. After blocking with PBS/BSA10% the membrane was cut to single lanes and each lane was incubated for 1 h with Fabs at 10 μg/L. After three washes membrane was incubated with anti-Human Light Chain K antibody (Sigma).

[1] = target: T2, recombinant transgelin (rTAGLN-Origene cod: TP302448) (human, UniProt Q01995 1-201); assay: western blot on human transgelin (referred back to)
T2 construct: also called commercial transgelin 1; human transgelin

[2] = target: T3, recombinant transgelin (rTAGLN) (Homo sapiens, UniProt Q01995); type: binding; conditions: 4-500 ng rTAGLN per well
T3 construct: purchased Origene TP302448

[3] = target: T4, transgelin 1 (SM22) from coronary plaque lysate (human, UniProt Q01995 2-201); assay: 2D electrophoresis western blot of coronary plaque lysate with 7816FLAG, spots identified by MALDI-ToF
T4 construct: also called TAGLN; spots C1 and C2

[4] = target: T2, recombinant transgelin (rTAGLN-Origene …); assay: western blot on recombinant transgelin
ompK36 = target: T5, ompK36 (Klebsiella pneumoniae, UniProt Q48473); assay: ELISA of 7816 IgG against coated ompK36; type: binding; conditions: full IgG1, 9 μg/ml; 8 μg OmpK36 coated; read at 450 nm
T5 construct: 6xHis (N); made in house; host or cells: E. coli BL21 (DE3), pET28b
Description: 8 μg of OmpK36 was coated on a 96 well ELISA plate in PBS, pH 5.0, overnight at 4° C. The day after, after three washes with PBS, the plate was blocked with PBS/BSA 1%, and purified 7816IgGs were added (9 μg/ml) to each well. After washing three timed with PBS/tween-20 0.1%, an anti-Human Fc antibody-HRP (SIGMA-Aldrich—diluted 1:8000), was added and incubated for 45-60 min. at 37° C. After five washes with PBS/Tween-20 0.1% 40 μL of TMB solution (Pierce) in every well was added and incubated for 15 min. at 37° C. After addition of 40 μl of Stop Solution (H2SO4 0.1 M) in every well the plates were read at 450 nm.

T2 sequence (Q01995 whole entry): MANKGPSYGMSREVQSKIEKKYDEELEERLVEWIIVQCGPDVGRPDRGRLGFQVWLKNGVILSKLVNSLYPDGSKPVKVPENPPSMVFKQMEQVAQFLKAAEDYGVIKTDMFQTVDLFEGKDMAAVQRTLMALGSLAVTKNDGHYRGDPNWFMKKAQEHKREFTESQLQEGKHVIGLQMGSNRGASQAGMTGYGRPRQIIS
T3 sequence (Q01995 whole entry): as above
T4 sequence (Q01995 2-201 limits assumed): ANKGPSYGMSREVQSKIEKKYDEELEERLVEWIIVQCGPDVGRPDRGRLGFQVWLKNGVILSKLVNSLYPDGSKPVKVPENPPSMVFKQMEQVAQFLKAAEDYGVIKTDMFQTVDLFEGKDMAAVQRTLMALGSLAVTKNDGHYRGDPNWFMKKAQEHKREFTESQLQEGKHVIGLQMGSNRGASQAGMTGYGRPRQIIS

B1: Fab 248: human recombinant Fab; heavy chain SEQ ID NO:14, light chain SEQ ID NO:16 (antibody, listed as Homo sapiens)
heavy: LESGGGLVKPGGSLRLSCAASGFTFSDYYMSWIRQAPGKGLEFISYISSGGDTIHHADSVKGRFTISRDNAKKSLYLQMNSLRVEDTAVYYCACRGVWGQGT
light: SPATVSVSPGERATLSCRASQSISFHLAWYQQKPGQAPSLLIYGTSTRATGIPARFSGSGSGTEFTLTISSLQSEDSAVYYCQQYHNWPPLTFGGGT
reactivity with purified OmpK36 in western-blot (purified OmpK36): react with purified OmpK36

B2: Fab 1630 (Fab, V domains shown)
VH: GGGLVKPGGSLRLSCTASGFTFSNGWMSWVRQAPGKGLEWVGRIRSNPDGGTTDYAAPFKGRFTISRDDSKNTLFLQVTSLKTEDTGVYYCITDRGDWKWGVPRDLTYWGQGTLVTVSS
VL: MAELTQSPDTLSLSPGERATLSCRASQSVDSNYLAWFQQKPGQAPRLLIYGAYSRATGIPDRFSGSGSGTDFTLTISRLEPEDFVVYYCQQYLSPPITFGQGTRLETKR
binding result [1]: binds

B3: Fab1630: human recombinant Fab from plaque 12 library (ID12LIB); HC SEQ ID NO:10, LC SEQ ID NO:12 (antibody, listed as Homo sapiens)
heavy: GGGLVKPGGSLRLSCTASGFTFSNGWMSWVRQAPGKGLEWVGRIRSNPDGGTTDYAAPFKGRFTISRDDSKNTLFLQVTSLKTEDTGVYYCITDRGDWKWGVPRDLTYWGQGTLVTVSSASTKGPSVFPLAPSSKSTSGGTAALGCLVKDYFPEPVTV
light: AMAELTQSPDTLSLSPGERATLSCRASQSVDSNYLAWFQQKPGQAPRLLIYGAYSRATGIPDRFSGSGSGTDFTLTISRLEPEDFVVYYCQQYLSPPITFGQGTRLETKRTVAAPSVFIFPPSD
binding to human transgelin in Western blot [2]: recognize human transgelin
reactivity with purified OmpK36 in western-blot (purified OmpK36): react with purified OmpK36

B4: Fab 7816 (Fab, V domains shown)
VH: LESGPGQVKPSQTLSLTCTVSGGSIGSGSYSWNWIRQPAGRGLEWIGRISDSGNTNFNPSLKSRVTMSVDTSKNQFALKLTSVTAADTATYFCARGRGILTGLFDYWGQGSLVSVSS
VL: SPDSLAVSPGGRATIKCASSQSVLDNSNHKNSLAWYQQKPGLPPKLLIYWASTRYSGVPDRFSGSGSGTDFTLTINNLQAADVAVYFCQQYYSTPWTFGQGTKVE
notes: also called Fab E7816
binding result [1]: binds

B5: 7816Fab-FLAG (Fab, V domains shown)
VH: B4 VH
VL: B4 VL
binding result [3]: binds

B6: IgG7816 (antibody, V domains shown)
VH: B4 VH
VL: B4 VL
binding result [4]: binds

B7: IgG7816: heavy and light chains of Fab 7816 cloned in pAc-k-Fc vector, expressed as IgG in Sf9 insect cells (antibody, V domains shown)
VH: LESGPGQVKPSQTLSLTCTVSGGSIGSGSYSWNWIRQPAGRGLEWIGRISDSGNTNFNPSLKSRVTMSVDTSKNQFALKLTSVTAADTATYFCARGRGILTGLFDYWGQGSLVSVSSASTKGPSVFPLAPSSKSTSGGTAALGCLVKD
VL: B4 VL
binding to ompK36 in ELISA (ompK36): binds specifically to ompK36
binding to human transgelin in Western blot [2]: positive band is visible
